Assay results from article doi:10.1101/2023.06.08.544223.

Target: SPARDA complex (heterodimer of NbaAgo and DREN-APAZ), wild type (Novosphingopyxis baekryungensis)
Experiment: SEC

stoichiometry N: 2
Substance: SPARDA complex (heterodimer of NbaAgo and DREN-APAZ), wild type
